From paper PMC8866119 (Nature, 2021)
Changes are numbered by the printed parent chain.

B1: BD-566 (antibody, V domains shown)
VH: QVQLVESGGGVVQPGRSLRLSCAASGFTFRSYGMHWVRQAPGKGLEWVAVISKDGSNKYYADSVKGRFTISRDNSKNTLYLQWNSLRAEDTAVYYCARALVVPGAPRYYYYGMDVWGQGTTVTVSS
VL: AIQLTQSPSSLSASVGDRVTITCRASQGISSALAWYQQRPGKAPKLLIYDASTLESGVPSRFSGSGSGTDFTLTISSLQPEDFATYYCQQFNTYPWTFGQGTKVELK
B2: S2E12 (antibody, V domains shown)
VH: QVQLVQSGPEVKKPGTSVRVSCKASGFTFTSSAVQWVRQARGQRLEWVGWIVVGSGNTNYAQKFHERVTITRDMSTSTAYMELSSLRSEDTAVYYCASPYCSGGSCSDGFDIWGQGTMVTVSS
VL: DIVLTQTPGTLSLSPGERATLSCRASQSVSSSYLAWYQQKPGQAPRLLIYGASSRATGIPDRFSGSGSGTDFTLTISRLEPEDFAVYYCQQYVGLTGWTFGQGTKVEIK
B3: BD-836 (antibody, V domains shown)
VH: QVQLVQSGPEVKKPGTSVRVSCKASGFTFSTSAVQWVRQARGQRLEWIGWIAVGSGKTDYLQKFQERVTMTRDESTNTAYMQLSSLRSEDTAVYYCAAPHCSGGTCYDGFDIWGQGTLVTVSS
VL: EIVLTQSPGTLSLSPGERATLSCRASQSVRSGYFAWYQQRPGRAPRLLIYGASSRATAIPDRFSGSGSGTDFTLTINRLEPEDFAVYYCQQYGTSPWTFGQGTKVEIK
B4: BD55-1706 (antibody, V domains shown)
VH: QVQLQESGPGLLKPSETLSLTCTVSGGSINSYYWNWIRQSPRKGLEWIGYIFFSGSTNYNPSLKSRVTISLDRSKNQFSVHLRSVTAADTAVYYCARGDSKTGYDLELFDYWGHGTLVTVSS
VL: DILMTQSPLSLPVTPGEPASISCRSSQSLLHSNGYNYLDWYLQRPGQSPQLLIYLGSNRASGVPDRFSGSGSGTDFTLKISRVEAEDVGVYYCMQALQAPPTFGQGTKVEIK
B5: BD-804 (antibody, V domains shown)
VH: EVQLVESGGGLVKPGGSLRLSCAASGFTFSNYDMNWVRQAPGKGLEWVSSISSSSTYTHYADSVKGRFTISRDNAKNSLYLQMNSLRAEDTAVYYCARDRAYRLGELSSLWGDDAFDIWGQGTMVTVSS
VL: AVWMTQSPSLLSASTGDRVTVSCRMSQDISSYLAWYQQKPGKAPELLIYAAFTLQSGVPSRFSGSGSGTEFTLTISSLQSEDFATYYCQQYYSFPHTFGQGTKLERR
B6: BD-812 (antibody, V domains shown)
VH: EVQLVQSGAEVKKPGESLKISCQFSEYKLISFWIAWVRQRPGKGLEWMGIIYPDDSDTKYSPSSQGQVTISADKSIRTAYLQWSSLMASDTAMYYCTSGSYYGTLDFWGQGTLVTVSS
VL: DIEITQSPSSLSASVGDRVTISCRASQDIRTYVAWYQQRPGKVPRLLIYAASTLQSGVPSRFSGRGSGTDFTLTISSLQPEDVATYYCQQYNSAPLTFGGGAKVEIK
B7: LY-CoV1404 (antibody, V domains shown)
VH: QITLKESGPTLVKPTQTLTLTCTFSGFSLSISGVGVGWLRQPPGKALEWLALIYWDDDKRYSPSLKSRLTISKDTSKNQVVLKMTNIDPVDTATYYCAHHSISTIFDHWGQGTLVTVSS
VL: QSALTQPASVSGSPGQSITISCTATSSDVGDYNYVSWYQQHPGKAPKLMIFEVSDRPSGISNRFSGSKSGNTASLTISGLQAEDEADYYCSSYTTSSAVFGGGTKLTVL
B8: BD-614 (antibody, V domains shown)
VH: QVQLVESGGGLVQPGGSLRLSCAASGLIVSSNYMSWVRQAPGEGLEWVSVIYSGGSTYYADSVKGRFTISRDTSKNTLYLQMNSLRAEDTAVYYCARARIYTYGPDYWGQGTLVTVSS
VL: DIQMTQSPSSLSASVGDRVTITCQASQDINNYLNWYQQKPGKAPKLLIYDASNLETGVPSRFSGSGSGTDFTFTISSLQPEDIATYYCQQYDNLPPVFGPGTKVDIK
B9: COV2-2072 (antibody, V domains shown)
VH: QMQLVQSGPEVKKPGTSVKVSCKTSGFTFTSSAIQWVRQARGQRLEWIGWIVVGSGNTNYAQKFQERVTITRDMSTSTAYMELSSLRSEDTAVYYCAAPHCNRTSCYDAFDLWGQGTMVTVSS
VL: not shown
B10: COV2-2381 (antibody, V domains shown)
VH: B9 VH with T24A, I34V, V52A, T69S, H100Y, N102S, Y107H, L112I, M118K
VL: EVVLTQSPGTLSLSPGERATLSCRASQSVSSSYLAWYQQKPGQAPRLLIYGASSRATGIPDRFSGSGSGTDFTLTISRLEPEDFAVYHCQHFGSSSQWTFGQGTKVEIK
B11: BD55-387 (antibody, V domains shown)
VH: QITLKESGPTLVKPTQTLTLTCTFSGFSLSTSGVGVGWIRQPPGKALEWLALIYWDDDKRYSPALKSRLTITEDTSKNQVVLTMTNMDPVDTATYYCAHCAPAWNYFDYWGQGTLVAVSS
VL: QSVLTQPPSVSGAPGQRVTISCTGSSSNIGAGYDVHWYQQLPGTAPKLLIYRNSNRPSGVPGRFSGSKSGTSASLAITGLQAEDEADYFCQSYDSSLSGWVFGGGTKLTVL
B12: COVOX-222 (antibody, V domains shown)
VH: EVQLVESGGGLIQPGGSLRLSCAASGLTVSSNYMSWVRQAPGKGLEWVSVIYSGGSTFYADSVKGRFTISRDNSKNTLYLQMNSLGAEDTAVYYCARGEGSPGNWFDPWGQGTLVTVSS
VL: DVVMTQSPGTLSLSPGERATLSCRASQSVPSSYLAWYQQKPGQAPRLLIYGASTRATGIPDRFSGSGSGTDFTLTISRLEPEDFAVYYCQHYDTSPRFGGGTKVDIK
B13: BD-618 (antibody, V domains shown)
VH: EVQLVESGGGLVQPGGSLRLSCAVSGFIVSRNYMTWVRQAPGKGLEWVSLIYSGGSTFYTNSVKGRFTISRDNSKNTLYLQMDSLRAEDTAVYYCARGPYPRFDYWGQGTLVTVSS
VL: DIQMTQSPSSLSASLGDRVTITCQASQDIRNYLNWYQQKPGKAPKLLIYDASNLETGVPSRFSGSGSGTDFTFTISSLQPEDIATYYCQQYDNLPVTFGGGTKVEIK
B14: BD-369 (antibody, V domains shown)
VH: EVQLVESGGGLVQPGGSLRLSCAASGITVSSNYMTWVRQAPGKGLEWVSLIYSGGSTYYADSVKGRFTISRDNSKNTLHLQMNSLRGEDTAVYYCARDLVAFGMDVWGQGTTVTVSS
VL: AIQLTQSPSSLSASVGDRVTITCRASQGISSYLAWYQQKPGKAPKLLIYAASTLQGGVPSRFSGSGSGTDFTLTISSLQSEDSATYYCQQLNSDTPTFGPGTKVEIK
B15: BD55-5293 (antibody, V domains shown)
VH: EVQLVQSGAEVKKPGESLKISCKTSGYSFISNWIGWVRQMPGKGLEWMGIIYPGDSDTRYSPSFQGQVTISVDKSISTAYLQWTSLKASDTAMYFCTRRGDYGEFGGFDGDWGQGTLVTVTS
VL: DIQMTQSSSSLSASVGDRVTITCRASQSTGRYLNWYQQKAGKAPKLVIYAVSSLQSGVPSRFSGSGSGTEFTLTINSLQPEDFATYYCQQTYSIPFTFGPGTKVDLK
B16: BD55-1962 (antibody, V domains shown)
VH: QVQLVQSGAEVKKPGSSVKVSCTASGDSFSSYAITWVRQAPGQGLEWMGRIIPILGIANYAQKFQGRVTLTADKSAGTAYMELSSLRSDDTAVYYCASGYDFHFDYWGQGTLVTVYS
VL: QSALTQPASVSGSPGQSITISCTGTSSDVGDYKYVSWYQQHAGKAPKLMIHDVSKRPSGVSSRFSGSKSGNTASLTISGLQAEDEADYYCSSYTSSSSWVFGGGTKLTVL
B17: BG4-25 (antibody, V domains shown)
VH: EVQLVESGGGLIQPGGSLRLSCAASGITVVRNYMTWVRQAPGKGLEWVSVIYSGGTTYYADSVKGRFTISRDNSKNTMYLQMNSLRAEDTAIYYCARDLEVVGAMDVWGQGTTVTVSS
VL: EIVLTQSPGTLSLSPGERATLSCRASQSVPSSYLAWYQQKPGQAPRLLIYGASSRATGIPDRFSGSGSGTDFTLTISRLEPEDFAVYYCQQYGSPMYTFGQGTKLEIK

Molecular target: SARS-CoV-2 Omicron (B.1.1.529) RBD (SARS-CoV-2 Omicron B.1.1.529 (BA.1), strain)

Row | Binder | binding result
1 | B1 | binds
2 | B2 | binds
3 | B3 | binds
4 | B4 | binds
5 | B5 | binds
6 | B6 | binds
7 | B7 | binds
8 | B8 | binds
9 | B9 | binds
10 | B10 | binds
11 | B11 | binds
12 | B12 | binds
13 | B13 | binds
14 | B14 | binds
15 | B15 | binds
16 | B16 | binds
17 | B17 | binds
